Assay: yeast display, Sf9 membrane polyspecificity reagent, FACS + sequencing; frameworks hold sequencing errors
Outline: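 Synthetic nanobody libraries on Saccharomyces cerevisiae BJ5465 were galactose-induced for 36–48 hours, stained 1 hour at 4 °C with 10% biotinylated, detergent-solubilized Sf9 membrane reagent and enriched on streptavidin microbeads. FACS then separated cells into low and high (top ~1%) gates by anti-HA (expression) and streptavidin (reagent binding) fluorescence. Genes were colony-PCR amplified, MiSeq 2 × 250 sequenced and CDR-length filtered. A clone's polyreactivity label is that of its gate of origin.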

Row | Sequence | polyreactivity (PSR sort gate)
1 | QVQLVESGGGLVQAGGSLRLSCAASGYTFRYNAMGWYRQAPGKERELVASITFSGGRTFYADSVKGRFTISRDNAKNTVYLQMNSLKPEDTAVYYCAAVRWGRRSGGLVAEYDYWGQGTQVTVSS | high polyreactivity
2 | QVQLVESGGGLVQAGGSLRLSCAASGYTFRYNTLGGYSQAPGKEREFVAAISSGVGNTYFAVSVKGRFTISRDNAKNTVYLQMNSLKPEDTAVYYCNADYKSSYYWYLWYNYWGQGTQVTVSS | low polyreactivity
3 | QVQLVESGGGLVQAGGSLRLSCAASGYTFSAYAMGWYRQAPGKERELVAVINRSGVRTYYADSVKGRFTISRDNAKNTVYLQMNSLKPEDTAVYYCAAPPRANLFDYWGQGTQVTVSS | high polyreactivity
4 | QVQLVESGGGLVQAGGSLRLSCAASGYTFSFNAMGWYRKAPGKEREMVAAINRGTSTNYADSVKGRFTISRDNAKNTVYLQMNSLKPEDTAVYYCAAGFRRRAGRYDLDYWGQGTQVTVSS | high polyreactivity
5 | QVQLVESGGGLVQAGGSLRLSCAASGYTFSQNAMGWYRPAPGKERELVAGITTRGTTTYYADSVKGRFTISRDNAKNTVYLQMNSLKPEDTAVYYCAADNSYTDNYWGQGTQVTVSS | low polyreactivity
6 | QVQLVESGGGLVQAGGSLRLSCAASGYTFSTYAMGWYRQAPGKERELFAAISYSGGRTRYADSVKGRFTISRDNAKNTVYLQMNSLKPEDTAVYYCAAKSGYGYGYWGQGTQVTVSS | high polyreactivity
7 | QVQLVESGGGLVQAGGSLRLSCAASGYTFSYNAMGWYRQAPGKERELVAAISRSGGSTYYADSVKGRFTISRDNAKNTVYLQMNSLKPEDTAVYYCAAKRVSVPYGYWGQGTQVTVSS | high polyreactivity
8 | QVQLVESGGGLVQAGGSLRLSCAASGYTFTGYAMGGYRQAPGKERECVAGITWRTGRTYYADSVKGRFTISRDNAKNTGYLQMNSLIPEDTAVYYCNKDHQRGYYWSYDYWGQGTQVTVSS | low polyreactivity
9 | QVQLVESGGGLVQAGGSLRLSCAASGYTFTGYAMGGYRQAPGKERELFATITRGGSTYYADSVKGRFTISRDNAKNTVYLPMNSLKPEDTAVYYCATRVQYYVKSTTQYGYGYWGQGTQVTVSS | low polyreactivity
10 | QVQLVESGGGLVQAGGSLRLSCAASGYTFTIYAMGWYRQAPGKERELVAAITGGGGRTYYADSVKGRFTISRDNAKNTVYLQMNSLKPEDTAVYYCAASGPIVGMNYWGQGTQVTVSS | high polyreactivity
11 | QVQLVESGGGLVQAGGSLRLSCAASGYTFTIYAMGWYRQAPGKERELVASISIDGSTYYADSVKGRFTISRDNAKNTVYLQMNSLKREDTAVYYCAADYYYYTPGFDYWGQGTQVTVSS | low polyreactivity
12 | QVQLVESGGGLVQAGGSLRLSCAASGYTFTRNAMGWYRQAPGKERELVATISGSGGGTYYADSVKGRFTISRDNAKNTVYLQMNSLKPEDTAVNYCNARRWFYWQGTARYDYWGQGTQVTVSS | low polyreactivity
13 | QVQLVESGGGLVQAGGSLRLSCAASGYTFVGYAMGWYRQAPGKERELVAAITNGGNTNYADSVKGRFTISRDNAKNTVYLQMNSLKPEDTAVYYCATRHSRRYSWIKYYGIGYDYWGQGTQVTVSS | high polyreactivity
14 | QVQLVESGGGLVQAGGSLRLSCAASGYTFVIYAMGWYRQAPGKERELVAAITTIGGRTYYADSVKGRFTISRDNAKNTVYLQMNSLKPEDTAVYYCAADIRSNRLYDGGYWGQGTHVTVSS | low polyreactivity
15 | QVQLVESGGGLVQAGGSLRLSCAASGYTFVLNAMGWYRQAPGKEREFVAAITWSGGSTYYADSVKGRFTISRDNAKNTVYLQMNSLNPEDTAVYYCAATAHYFGEYDYWGQGTQVTVSS | low polyreactivity
16 | QVQLVESGGGLVQAGGSLRLSCAASGYTFVRYALGWYRQAPGKEMELVAAMSRSGGSTYYADSVKGRFTISRDNAKNTVYLQMNSLKPEDTAVYYCNAYPYSYYDYDYWGQGTQVTVSS | high polyreactivity
17 | QVQLVESGGGLVQAGGSLRLSCAASGYTFVTYAMGWYRQAPGKERELVAAISYTGGSTYYADSEKGRFTISRDNAKNTVYLQMNSLKPEDTAVYYCNTRYSLYTKYAYYDEHDYWGQGTQVTVSS | low polyreactivity
18 | QVQLVESGGGLVQAGGSLRLSCAASGYTFVYYAMGLYREAPGKERELVAAITSGGRTNYADSVKGRFTISRDNAKNTVYLQMNSLKPEDTAVYYCNVDGYYLFVRGYEYWGQGTQVTVSS | low polyreactivity
19 | QVQLVESGGGLVQAGGSLRLSCAASGYTFWRYAMGWYRQAPGKERELVAAISQSGGRTYYADSVKGRFTISRDNAKNTVYLQMNSLKPEDTAVYYCATSSTQGDDYWGQGTQVTVSS | high polyreactivity
20 | QVQLVESGGGLVQAGGSLRLSCAASGYTFYANAMGWYRQAPGKEREFVASSTWSGGSTYYADSVKGRFTISRDNAKNTVYFQMNSLKPEDTAVYYCAADSWFKYDYWGQGTQVTVSS | low polyreactivity
21 | QVQLVESGGGLVQAGGSLRLSCAASGYTFYFYARGWYRQAPGKERELGAAITGGGTTSYADSVKGRFTISRDNAKNTVYLQMNSLKPEDTAVYYCNLLFADKSDYWGQGTQVTVSS | low polyreactivity
22 | QVQLVESGGGLVQAGGSLRLSCAASGYTFYINATGWYRQAPGKERELVAVITWSSGSTYYADSVKGRFTISRDNAKNTVYLQMNSLKPEDTAVYYCAADVTYEDGAWTIQYDYWGQGTQVTVSS | high polyreactivity

Row | Sequence | polyreactivity (PSR sort gate)
23 | QVQLVESGGGLVQAGGSLRLSCAASGYTFYSNAMGWYRQAPGKETELVASIRSRGRSTYYADSVKGRFTISRDNAKNTVYLQMNSLKPEDTAVYYCAALPNKPAVYAYDYWGQGTQVTVSS | low polyreactivity
24 | QVQLVESGGGLVQAGGSLRLSCAASGYTFYSYAMGWYRQAPGKERELFAAITESGARTYYADSVKGRFTISRDNAKNTVYLQMNSLKPEVTAVYYCAADYAWPLRVTGDYWGQGTQVTVSS | low polyreactivity
25 | QVQLVESGGGLVQAGGSLRLSCAASGYTFYSYAMGWYRQEPGKERELVAAIRTGGGTIYADSVKGRFTISRDNAKNTVYLQMNSLKPEDTAVYYCAAESGYPVYTYVSSGDYWGQGTQVTVSS | low polyreactivity
26 | QVQLVESGGGLVQAGGSLRLSCAASGYTIGNNAMGWYRQAPGKERELVARIRTNGGTTYYADSVKGRFTISRDYAKNTVYLQMISLKPEDTAVYYCIAYRGYEYDYWGQGTQVTVSS | low polyreactivity
27 | QVQLVESGGGLVQAGGSLRLSCAASGYTLTINVMGWYRQAPGKERELVAAITSSGASTNYADSVKGRFTISRDNAKNTVYLQMNSLKPEDTAVYYCNVVNEHQSDFVVPFDYNHWGQGTQVTVSS | low polyreactivity
28 | QVQLVESGGGLVQAGGSLRLSCAASGYTSKTYAMGWYRQAPGKERELVAAINWGSGSTYYADSVKGRFTISRDNAKNTVYFQMYSLKPEDTAVYYCAALVYGHRRLVGNLSRGYWGQGTQVTVSS | high polyreactivity
29 | QVQLVESGGGLVQAGGSLRLSCAASGYTSSLNAMGWYRQAPGKERELVARITTDGTSTYYADSVKGRFTISRDNANNTVYLQMNSLKPEDTAVYYCAAEYSYVQFGFGYWGQGTQVTVSS | low polyreactivity
30 | QVQLVESGGGLVQAGGSLRLSCAASGYTVWGYAMGWYRQAPGKERELVADITISGGSTYYADSVKGRFTISRDNAKNTVYLQMNSLKPDDSAVYYCAASRAFSWWLSYDYWGQGTQVTVSS | high polyreactivity
31 | QVQLVESGGGLVQAGGSLRLSCAASGYTYGTYDMRWYRQAPGKERELVAAFSIGGSTNYADSVKGRFTISRDNAKNTVYLQMNSLKPEDTAVYYCAAEVNVGTLLLSVIVEDGDYWGQGTQVTVSS | low polyreactivity
32 | QVQLVESGGGLVQAGGSLRLSCAASGYTYPQNAMGWYIKAPGKERDLFAAISRSGGSTNYADSVKGRNTISRDNAKNTVYLQMNILKPEDTAVYYCARYNYTRQTRVEYGYWGQCTQVTVSS | high polyreactivity
33 | QVQLVESGGGLVQAGGSLRLSCAASGYYAMGWYRQAPGKERELVAAITWSGGTTYYADSVKGRFTISRDNAKNTVYLQMNSLKPEDTAVYYCNADFVRYTRHKKYYYWGQGTQVTVSS | low polyreactivity
34 | QVQLVESGGGLVQAGGSLRLSCAASLIFANYAMGWYRQAPGKERELVAAISSVGRTYYADSVKGRFTISRDNAKNTVYLQMNSLKPEDTAVYYCAAESWFKYDYWGQGTQVTVSS | low polyreactivity
35 | QVQLVESGGGLVQAGGSLRLSCAASRFIFWSYAMGWYIQAPGTEREMVAAIDMTGGSTYYADYVKGRFTISRDNAKNTVYLQMNSLKPEDTAVYYCNADGDTYAFTNSDSGFDYWGQGTQVTVSS | low polyreactivity
36 | QVQLVESGGGLVQAGGSLRLSCAASRFIFWSYAMGWYRQAPGKERELVAAISWRGGSTYYADSVKGRFTISRDNAKNTVYLQMNSLKPEDTAVYYCAAESYNGYDYWGQGTQVTVSS | high polyreactivity
37 | QVQLVESGGGLVQAGGSLRLSCAASRFLFWSYAMGWYRQAPGKERELVAAISWRGGSTYYADSVKGRFSISRDTAKNTVYLQMNSLKPEDTAVYYCAAERYNGYDYWGQGTQVTVSS | high polyreactivity
38 | QVQLVESGGGLVQAGGSLRLSCAASRIFRGYAMGWYRQAPGKERELVAAIRRGGSTNYADSVKGRFTIARDNAKNTVYLQMNSLKPEDTAVYYCNAYLYFPRYDYWGQGTQVTVSS | high polyreactivity
39 | QVQLVESGGGLVQAGGSLRLSCAASRIIFTHNAMGWYRQAPGKERELVAAISWSGGSTYYADSVNGRFTISRDNAKNTVYIEMNSLKPEDTAVYYCAAPYFTYGQDDDDYWGQGTQVTVSS | low polyreactivity
40 | QVQLVESGGGLVQAGGSLRLSCAASRRIFWSNAMGWYRQEPGKERELVAAISRRGGRTYYADSVKGRFTISLDNAKNSVYLQMNSLKPEDTAVYYCAADGTADYDYWGQGTQVTVSS | high polyreactivity
41 | QVQLVESGGGLVQAGGSLRLSCAASRRTSRYYAMGWYRQAPGKETEFVAAINFSGGRTYYADSVKGRFTISRDNAKNSVYLQMNSLKPEDTAVYYCATQDYRYRYSRFGYWGQGTLVTVSS | high polyreactivity
42 | QVQLVESGGGLVQAGGSLRLSCAASRSIFSIYAMGWYRQAPGKERELVAAITWGGGSTYYADSVKGRFTISRDNAKNTVYLQMNSLKPEDTALYYCAADSLTWYGTYYYWGQGTQVTVSS | high polyreactivity
43 | QVQLVESGGGLVQAGGSLRLSCAASVFIFGLYAMGWYRQAPGKERELVAAISRSGGSTYYADSVKGRFTISRDNEKNTVYLQMNSLKPEDTAVYYCAKRASPRQAGPIYDSWGQGTQVTVSS | high polyreactivity

— the nanobody polyreactivity screen of Harvey et al. (2022)
